Results published in patent US20210047373A1, “BETA BARREL POLYPEPTIDES AND METHODS FOR THEIR USE” (UNIVERSITY OF WASHINGTON, priority 2018, published 2021).
Values joined by “and” are separate entries in the source; they are usually repeats but may differ in a detail not shown here. Equal entries are not always repeated. Where two headings read alike, the source gives them in different places. Marks after values point to notes of the source that are not given here.

Columns and labels:
[1] = cited from earlier work
[2] = Photophysical characterization (absorbance, excitation, emission, extinction coefficient, quantum yield); assay type: physicochemical
[3] = unbound, free DFHBI in liquid buffer; Paige et al., 2011; cited from earlier work
[4] = Fluorescence brightness with DFHBI-1T; assay type: biochemical; settings: normalized 0 to 1 across all three chromophores; average ± SD of two protein concentrations
Method: (§1) Table 3A-C. Brightness and chromophore affinities of selected mFAP variants. Fluorescence brightness measurements at 10 μM (top table) and 100 nM (middle table) chromophore concentrations were normalized from 0 to 1 across all three chromophores (DFHBI, DFHBI-1T, and DFHO), and the normalized values for two protein concentrations tested for each chromophore at each chromophore concentration were averaged and standard deviations of the average computed. Reported values are the normalized averages and standard deviations of the means for each chromophore concentration and each chromophore. Reported relative densitometry values are the relative densitometry values normalized from 0 to 1 and represent how well each design expresses relative to one another in Lemo21(DE3) E. coli cultures. Thermodynamic dissociation constants (bottom table) are obtained by non-linear least squares fitting of chromophore titrations (n=1) to a single binding site isotherm, and values reported with the standard deviation of the fit. Where the obtained Kd values are below the protein concentration tested, the Kd and standard deviation of the fit are reported in parentheses. Values with “N/D” were not determined.

[5] = tested on: E. coli, yeast, and mammalian cells; test: Confocal imaging of cells expressing mFAPs with DFHBI; assay type: cell-based; settings: 20 μM DFHBI
Method: To determine whether the designed DFHBI-binding fluorescence-activating proteins function in living cells, we imaged mFAP1- and mFAP2-DFHBI complexes in E. coli, yeast, and mammalian cells by confocal microscopy. […] The quantum yield of mFAP1 and mFAP2 in complex with DFHBI is 2.0% and 2.1% respectively (Table 2).
Confocal image acquisition. Mammalian cell imaging of mFAP1 and mFAP2 was performed in NIH3T3 cells (Flp-In-3T3, Thermo Fisher Scientific, Inc). NIH3T3 cells were cultured in high-glucose DMEM, 4 mM L-glutamine, 10% fetal bovine serum (FBS, Life Technologies, Inc) at 37 degrees Celsius, 5% CO2. Cells were plated at 4×10^4 cells/mL in 35 mm glass-bottomed dishes (Matek, Inc) that were coated with poly-D-lysine. Cells were transfected 24 hours after plating with Lipofectamine™ 3000 (Thermo Fisher Scientific, Inc) at a ratio of 3 μL reagent:1 μL DNA, according to manufacturer's instructions, with […] plasmids of mFAPs or mFAP fusions (1.25 μg mCherry™ plasmid was added to the cytosolic constructs as a transfection control). Right before imaging, cell media was replaced with FluorBrite™ DMEM (Thermo Fisher Scientific, Inc) media supplemented with GlutaMax™ (Thermo Fisher Scientific, Inc) and 10% v/v FBS, and 20 μM DFHBI. […] A white light laser of 488 was used to excite the DFHBI and detected by a HyD detector, over a range of 495-550 nm. […]

[6] = Fluorescence activation / brightness with DFHBI; assay type: biochemical; settings: normalized 0 to 1 across all three chromophores; average ± SD of two protein concentrations
Method: (§2) Fluorescence binding assay. Protein-activated DFHBI fluorescence signals were measured in 96-well plate format (Corning 3650) on a Synergy neo2 plate reader (BioTek, Inc) with λex=450 nm or 460 nm and λem=500 nm or 510 nm. Binding reactions were performed at […] in PBS pH7.4 buffer. Protein concentrations were determined by 280 nm absorbance as described above. DFHBI (Lucerna, Inc) were resuspended in DMSO as instructed to make 100 mM stock and diluted in PBS to 0.5-10 μM. Approximate emission spectra were recorded for active designs from 490 to 600 nm.
as §1

[7] = Fluorescence brightness with DFHO; assay type: biochemical; settings: normalized 0 to 1 across all three chromophores; average ± SD of two protein concentrations
Method: as §1

[8] = Chromophore titration, fit to single binding site isotherm: DFHO; settings: n=1 titration; ± SD of the fit; Table 3C
Method: as §1

[9] = Chromophore titration, fit to single binding site isotherm: DFHBI
Method: as §2, §1

[10] = Chromophore titration, fit to single binding site isotherm: DFHBI-1T; settings: n=1 titration; ± SD of the fit; Table 3C
Method: as §1

[11] = pH-dependent fluorescence of mFAP/DFHBI complexes; assay type: biochemical
Source text: FIG. 22: In vitro characterization of the pH-responsive mFAP_pH and comparison to the existing pHRed system and pH-unresponsive mFAP2b. (a-c) Chemical basis of pH-responsiveness in mFAP_pH. (a) Chemical structures of protonated tautomers and deprotonated resonance structures of DFHBI. […] The arrangement of intermolecular hydrogen bonds in the binding site of mFAP2b (c, binding pocket of the design model with the phenolate form of DFHBI) has low shape complementarity to the protonated DFHBI tautomers. The mutations W27M and W93F improve binding to the protonated DFHBI tautomers (b, model of mFAP_pH binding pocket with the phenolic form of DFHBI). […] (d) Normalized fluorescence excitation spectra of the mFAP_pH/DFHBI complex are shown for a pH titration from pH 3.63 to pH 8.38. (e) mFAP_pH normalized fluorescence emission spectra at pH 3.63 and pH 8.38. […] (f) Binding of mFAP_pH to both the phenolic and phenolate forms of DFHBI results in a high fluorescence ratio fold-change from low to high pH. (h, i) pH-dependent fluorescence of the mFAPpH/DFHBI complex compared to the previously described pHRed system. […] (i) Fluorescence ratios (Fratio) of unnormalized fluorescence measurements from panel (h) for mFAP_pH and pHRed. […]
We sought to further improve fluorescence of the complex at acidic and neutral pH and built a site-directed mutagenesis (SDM) library at 15 positions of mFAP2.1. […]

[12] = Circular dichroism, thermal and GuHCl denaturation; assay type: physicochemical; settings: CD in the absence of DFHBI, pH 2.93
Method: Circular dichroism (CD). Purified protein samples were prepared at 0.5 mg/ml in 20 mM Tris buffer (150 mM NaCl, pH8.0) or PBS buffer (25 mM phosphate, 150 mM NaCl, pH7.4). Wavelength scans from 195 nm to 260 nm were recorded at 25 degrees Celsius, 75 degrees Celsius, 95 degrees Celsius and cooling back to 25 degrees Celsius. Thermal denaturation was monitored at 220 nm or 226 nm from 25 degrees Celsius to 95 degrees Celsius. Near-UV wavelength scan from 240 nm to 320 nm and tryptophan fluorescence emission were recorded in the absence and presence of 5M guanidinium chloride (GuHCl). Chemical denaturation in GuHCl was monitored by both tryptophan fluorescence and near-UV CD signal at 285 nm. The concentration of the GuHCl stock solution was measured with a refractometer (Spectronic Instruments, Inc). Far-UV CD experiments were performed on an AVIV model 420 CD spectrometer (Aviv Biomedical, Inc). Near-UV CD and tryptophan fluorescence experiments were performed on a Jasco J-1500 CD spectrometer (Jasco, Inc). Protein concentrations were determined by 280 nm absorbance with a NanoDrop™spectrophotometer (ThermoScientific, Inc). Melting temperatures were estimated by smoothing the sparse data with a Savitsky-Golay filter of order 3 and approximating the smoothed data with a cubic spline to compute derivatives. Reported Tm values are the inflection points of the melting curves.

[13] = previously reported value, Table 4
[14] = n=1 titration, ± SD of the fit, Table 3C, read-out: DFHBI Kd

Row | Molecule | Fluorescence brightness, 100 nM DFHBI-1T [4] | Fluorescence brightness, 10 μM DFHBI-1T [4] | Fluorescence brightness, 100 nM DFHBI [6] | Fluorescence brightness, 10 μM DFHBI [6] | Fluorescence brightness, 100 nM DFHO [7] | Fluorescence brightness, 10 μM DFHO [7] | Kd [8] [µM] | Kd [9, 14] [µM] | Kd [10] [µM] | further results
1 | CC1=N/C(=C\c2cc(F)c(O)c(F)c2)C(=O)N1C [DFHBI, (Z)-4-(3,5-difluoro-4-hydroxybenzylidene)-1,2-dimethyl-1H-imidazol-5(4H)-one] |  |  |  |  |  |  |  |  |  | Absolute Quantum Yield ([1]; previously reported value [1], Table 4): 0.001^#; λabs [1, 13]: 418^†# nm; λem [1, 13]: 489^† nm; λex [1, 13]: 423^† nm; Reported Quantum Yield ([1]; previously reported value): 0.0007^†; Relative Quantum Yield ([1]; reported value (ref 25), Table 2): 0.0007***; Extinction Coefficient ([2]; Table 2): 31,935 M^−1cm^−1; Absolute Quantum Yield ([2]; integrating sphere, Table 2): 0.001; λabs ([2]; peak absorbance wavelength, Table 2): 418 nm; pKa [3]: 5.5
2 | mFAP2: SEQ ID NO:38; variant of b11L5F.1 with 6-residue insertion in the seventh β-turn (protein, (1)..(1) optionally absent) MSRAAQLLPGTWQVTMTNEDGQTSQGQMHFQPRSPYTMDVVAQGTISDGRPISGYGKVTVKTPDTLDVDITYPSLGNIKAQGQITMDSPTQFKFDATTKGAGNFTGRLTGTLQRQE | 0.15 ± 0.01 | 0.33 ± 0.04 | 0.12 ± 0.0 | 0.14 ± 0.03 | 0.01 ± 0.0 | 0.01 ± 0.0 | 22.7 ± 9.66 | 1.15 ± 0.16 | 43.2 ± 7.01 | In vivo fluorescence activation [5]: showed in vivo fluorescence activation; Quantum yield in complex with DFHBI ([2]; absolute): 2.1%; Kd ([9]; read-out: Dissociation constant of DFHBI): ~0.2 µM and ~0.18 µM
3 | mFAP2.2: SEQ ID NO:41 (protein, (1)..(1) optionally absent) MSRAAQLLPGTWQVTMTNEDGQTSQGQMHFQPRSPYTMDVVAQGTISDGRPIVGYGKVTVKTPDTLDVDITYPSLGNIKAQGQITMDSPTQFKFDATTKGAGNFTGRLTGTLQRQE | 0.33 ± 0.02 | 0.55 ± 0.02 | 0.13 ± 0.0 | 0.17 ± 0.03 | 0.01 ± 0.0 | 0.01 ± 0.0 | 22.7 ± 9.66 | 1.15 ± 0.16 | 43.2 ± 7.01 | Fluorescence ratio fold-change, higher than mFAP2.1 ([11]; across pH 3.66-7.36): ~1.3 fold
4 | mFAP2.1: SEQ ID NO:40 (protein, (1)..(1) optionally absent) MSRAAQLLPGTWQVTMTNEDGQTSQGQMHFQPRSPYTMDVVAQGTISDGRTIVGYGKVTVKTPDTLDVDITYPSLGNIKAQGQITMDSPTQFKFDATTKGAGNFTGRLTGTLQRQE | 0.34 ± 0.01 | 0.25 ± 0.01 | 0.13 ± 0.0 | 0.07 ± 0.02 | 0.01 ± 0.0 | 0.01 ± 0.0 |  |  |  | Stability at low pH [12]: improved stability; Fluorescence in the presence of DFHBI at acidic pH ([11]; pH 3.66): higher fluorescence
